Data on 41 sequences can be found in the nanobody polyreactivity screen of Harvey et al. (2022).

This data set is described as follows: yeast display, Sf9 membrane polyspecificity reagent, FACS + sequencing; frameworks hold sequencing errors. The gist of the method: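 Polyreactivity labels are assigned by the sorting gate from which each nanobody was recovered. The gates were low and high (top ~1%), set on anti-HA fluorescence for expression and streptavidin fluorescence for reagent binding. Before sorting, galactose-induced (36–48 hours) yeast display cells were stained for 1 hour at 4 °C with 10% biotinylated, detergent-solubilized Sf9 membrane reagent.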
Consider “QVQLVESGGGLVQAGGSLRLSCAASGSTFTYYAMGWYRQAPGKERELVAAIDFSGTSTYYADSVKGRFTISRDNAKNTVYLQMNSLQPEDTAVYYCAASQSWYWGGAQDNGEFGYWGQGTQVTVSS”, for which the “polyreactivity (PSR sort gate)” value is “low polyreactivity”. “QVQLVESGGGLVQAGGSLRLSCAASGSTFTYYAMGWYRQAPGKERELVAAISRSGGNTYYADSVKGRFTISRDNAKNTVYLQMNSLKKEDTAVYYCAAYRQVYGFDYWGQGTQVTVSS”: the “polyreactivity (PSR sort gate)” value is “high polyreactivity”.

As for “QVQLVESGGGLVQAGGSLRLSCAASGSTFTYYAMGWYRQAPGKERELVAAISRSGGNTYYADSVKGRFTISRDNAKNTVYLQMNSLKPEDTAVYYCAAYRQVYGFDYWGQGTQVTVSS”, the “polyreactivity (PSR sort gate)” value was “high polyreactivity”. With “QVQLVESGGGLVQAGGSLRLSCAASGSTFTYYAMGWYRQAPGKERELVAAITGRGGRTYYADSVKGRFTISRDNAKNTVYLQMNSLKPEDTAVYYCARYPSSDTYWTKYDYWGQGTQVTVSS”, the “polyreactivity (PSR sort gate)” value is listed as “high polyreactivity”. With “QVQLVESGGGLVQAGGSLRLSCAASGSTFTYYAMGWYRQAPGKERELVAAITSGGSTYYADSVKGRFTISRDNAKNTVYLQMNSLKPEDTAVYYCNRGSWRYSTMEYWGQGTQVTVSS” the entry was “high polyreactivity”; with “QVQLVESGGGLVQAGGSLRLSCAASGSTFTYYTMGWYRQAPVKERELVAAISTSGGRTYDADSVKGRFTISRDYAKIPVFLQMNSLKPEDTAVYYCAAYSRTYDREFDYWGQGTQVTVSS”, “high polyreactivity”. Take “QVQLVESGGGLVQAGGSLRLSCAASGSTFVANVMGWYRQAPGKERELVAAINTNGGSTYYADSVKGRFTISRDNAKNTVYLQMNSLKPEDTAVYYCNKAWFRYWYGYWGQGTQVTVSS”: the “polyreactivity (PSR sort gate)” value is recorded as “low polyreactivity”. With “QVQLVESGGGLVQAGGSLRLSCAASGSTFVDYALGWARQAPGKERELVAAISSSGGSTYYADSVKGRFTISRDTAKNTVYLQMNSLKPEDTAVYYCAARYDRSSKRNYWGQGTQVTVSS”, the “polyreactivity (PSR sort gate)” value is reported as “low polyreactivity”. As for “QVQLVESGGGLVQAGGSLRLSCAASGSTFVDYAMGWYRQAPGKERELVAAMSSSGGSTYYADSVKGRFTISRDNAKNTVYLQMNSLKPEDTAVYYCAARYDRSSKRNYWGQGTQVTVSS”, the entry is “low polyreactivity”. As to “QVQLVESGGGLVQAGGSLRLSCAASGSTFVFYAMGWSREAPGKERELVAAITISGDITYYADSVKGRFTISRDNAKNTVYLQMNSLKPEDTAVYYWAVDGPIPDLHEYWGQGTQVTVSS”, the “polyreactivity (PSR sort gate)” value was “low polyreactivity”. As for “QVQLVESGGGLVQAGGSLRLSCAASGSTFVFYAMGWYRLAPGKDRELVAINSGGSTYYADSVKGRFTISRDNAKNTVYLQMNSLKPEDTAVYFCAKDPLRVWRFDYWGQGTQVTVSS”, the entry is “low polyreactivity”; as for “QVQLVESGGGLVQAGGSLRLSCAASGSTFVFYAMGWYRQAPGKERELVASISFRGGSTRYADSVKGRFTISRDNAKNTVYLQMNSLKPEDTAVYYCNARPFYRYYYWGQGTQVTVSS”, “high polyreactivity”; as for “QVQLVESGGGLVQAGGSLRLSCAASGSTFVGNAMGWYRQAPGKERELVAGISSGGSSNYADSVKGRFTISRDNAKNTVYLQMNSLKREDTAVYYCNAVPGVGEMDYWGQGTQVTVSS”, “low polyreactivity”. With “QVQLVESGGGLVQAGGSLRLSCAASGSTFVGYAMGWYRLAPGKEREFVAAITRGGSTNYADSVKGRFTISRDNAKNTVYLQMNSLKPEDTAVYYCAARDRREGFNFDYCGQGTQVTVSS” the entry was “low polyreactivity”; with “QVQLVESGGGLVQAGGSLRLSCAASGSTFVGYAMVWYRQAPGKERELVAAISRSGGSTYYADSVKGRFTISRDNAKNTVYLQMNSLKPEDTAVYYCAAGARAFDDDFWGQGTQVNVSS”, “low polyreactivity”; with “QVQLVESGGGLVQAGGSLRLSCAASGSTFVHYAMGWYRQAPGKERELVADITTGDITNYADSVKGRFTISRDNAKNTVYLQMNSLKPEDTAVYYCAVDHQNSPFHVGRDEYWGQGTQVTVSS”, “low polyreactivity”.

As for “QVQLVESGGGLVQAGGSLRLSCAASGSTFVIYAMGLYTQAPGKERELVAAISRRTGSTYYADSVKGRFTISRYNAKNTVYLQMNSLKPEDTAVYYCAADYRYYTKYYGYLTYYYWGQGTQVTVSS”, the “polyreactivity (PSR sort gate)” value is “high polyreactivity”.

With “QVQLVESGGGLVQAGGSLRLSCAASGSTFVIYGKGWYRQAPGKERELVASISGSGGSTFYADSVKGRFTISRDNAKITVYLEMNSRKPEDTAVYYCAAAVGVGRSGGTYDYWGQGTQVTVSS”, the “polyreactivity (PSR sort gate)” value is listed as “low polyreactivity”. Take “QVQLVESGGGLVQAGGSLRLSCAASGSTFVKYDMGWYRQAPGKERELVAAITTTGGSTYYADSVKGRFTISRDNAKNTVYLQMNSLIPEDTAVYYCATLVSASRSRRFGYEYWGQGTQVTVSS”: the “polyreactivity (PSR sort gate)” value is listed as “high polyreactivity”. Turning to “QVQLVESGGGLVQAGGSLRLSCAASGSTFVLYAMGWYRQAPGKERELVAAINSAGSTNYADSVKGRFTISRDNAKNTVYLQMNSLNPEDTAVYYCAAEYYYSYVDRTYYIYDYWGQGTQVTVSS”, the “polyreactivity (PSR sort gate)” value was “high polyreactivity”. Consider “QVQLVESGGGLVQAGGSLRLSCAASGSTFVNNAMGWSREARGKERELVAAIRSSDGRTYYADSVKGRFTISRDKAKNTVYLQMNSLKPEDTAVDYCATAVGTKYRTRIFEYYYWGQGTQVTVSS”, for which the “polyreactivity (PSR sort gate)” value is “high polyreactivity”. With “QVQLVESGGGLVQAGGSLRLSCAASGSTFVNNAMGWYRQAPGKERELVASITVGGSTYYADSVKGRFTISRDNAKNTVYLQMNSLKPEDTAVYYCNVQYSYYASDYDYWGQGTQVTVSS” the entry was “low polyreactivity”; with “QVQLVESGGGLVQAGGSLRLSCAASGSTFVNYAMGWYRQAPGKERELVAAITRSGGNTYYADSVKGRFTISRDNAKNTVYLQMNSLKPEDTAVYDCAASFKQDIWYYYWGQGTQVTVSS”, “high polyreactivity”; with “QVQLVESGGGLVQAGGSLRLSCAASGSTFVPKDMGWNRQAPGKERELVAAISYSGGSTYYADSVKGRFTISRDNAKNTVYLQLNSLKPEDTAVDYCNAEGWYYLTEYGYWGQGTQVTVSS”, “low polyreactivity”.

As to “QVQLVESGGGLVQAGGSLRLSCAASGSTFVPNAMGWYRQAPGKERELVAALTFSGGTTYYADSVKGRFTISRDNAKNTVYLQMNSLKPEGTAVYYCAADYFSNLWWSGHAWRYYYWGQGTQVTVSS”, the “polyreactivity (PSR sort gate)” value is reported as “low polyreactivity”. With “QVQLVESGGGLVQAGGSLRLSCAASGSTFVPNTMGWYRQAPGKERELVAAITYSGGSTYYADSVKGRFTISRDNAKNTVYLQMNSLKPEDTAVYYCAAEGTTWYYDMDYWGQGTQVTVSS” the entry was “low polyreactivity”; with “QVQLVESGGGLVQAGGSLRLSCAASGSTFVPYALGWYRQAPGKERELVAAITTSGGNTYYADSVKGRFTISRDNAKNTVYLQMNSLKPEDTAVYYCAADTFRRFDYWGQGTQVTVSS”, “low polyreactivity”; with “QVQLVESGGGLVQAGGSLRLSCAASGSTFVPYAMGWSSQAPGKERELVADISWSGGSTYYADSVKVRFTISRDNAKNTVYLQMNSLKPEDTAVYYCAARSIYKSKYDYWGQGTQVTVSS”, “high polyreactivity”. In the case of “QVQLVESGGGLVQAGGSLRLSCAASGSTFVPYAMGWYRQAPGKERELVAAISGTGGRTSYADSVKGRFTISRDNAKNTVYLQMNSLKPEDTAVYYCAAADGIYARYFFSRFPRFDYWGQGTQVTVSS”, the “polyreactivity (PSR sort gate)” value is “low polyreactivity”. “QVQLVESGGGLVQAGGSLRLSCAASGSTFVPYAMGWYRQAPGKERELVAGITFSGGSTYYADSVKGRFTIPRDNAKNTVYLQMNSLKPEDTAVYYCARAGGYPLSRYGYWGQGTQVTVSS”: the “polyreactivity (PSR sort gate)” value is “high polyreactivity”. As for “QVQLVESGGGLVQAGGSLRLSCAASGSTFVPYAMGWYRQAPGKERELVAVITRGSTNYADSVKGRFTISRDNAKNTVYLQMNRLKPEDTAVYYCAVDVARGVLDYSFDSWGQGTQVTVSS”, the entry is “high polyreactivity”; as for “QVQLVESGGGLVQAGGSLRLSCAASGSTFVQYAMGWYRQAPGKERELVAAITSGGRTNYADSVKGRFTISRDNAKYTVYLQMNSLKPEDTAVYYCAARYGSNSPRGYEYYYWGQGTQVSVSS”, “low polyreactivity”; as for “QVQLVESGGGLVQAGGSLRLSCAASGSTFVQYAMGWYRQAPGKERELVAAITSGGRTNYADSVNGRFTISRDNAKNTVYLQMNSLKPEDTAVYYCAARYGSNSPRRYEYYYWGQGTQVTVSS”, “low polyreactivity”. Turning to “QVQLVESGGGLVQAGGSLRLSCAASGSTFVQYVMGWYRQAPGKERELVAAISSSGGSTYYADSVKGRFTISRDNAKNTVYLQMNSLKPEDTAVYDCAARRLPRPWTSTSDYWGQGTQVTVSS”, the “polyreactivity (PSR sort gate)” value is recorded as “high polyreactivity”. With “QVQLVESGGGLVQAGGSLRLSCAASGSTFVQYVMGWYRQAPGKERELVAAISSSGGSTYYADSVKGRFTISRDNAKNTVYLQMNSLKPEDTAVYYCAAYYFVAQARYDYWGQGTQVTVSS” the entry was “high polyreactivity”; with “QVQLVESGGGLVQAGGSLRLSCAASGSTFVRNAMGWYRQAPGKERELVAAISRSGGRTYYADSVKGRFTISRDNAKNTVYLQMNSLKPEDNAVYYCNAVLGYYSYDYWGQGTQVTVSS”, “high polyreactivity”; with “QVQLVESGGGLVQAGGSLRLSCAASGSTFVRYAMGWYRQAPGKEREFVAAISKRGGSTYYADSVKGRFTISRDIAKNTVYLQMNSLKPEDTAVYYCATYLLRDAPGLHQVGYWGQGTQVTVSS”, “high polyreactivity”. Take “QVQLVESGGGLVQAGGSLRLSCAASGSTFVRYAMGWYRQAPGKERELVAAISKSGGSTYYADSVKGRFTISRDNAKNTVYLQMNSLKPEDTAVYYCNADVYKNSKFRIMGYWGQGTQVTVSS”: the “polyreactivity (PSR sort gate)” value is “high polyreactivity”.

In the case of “QVQLVESGGGLVQAGGSLRLSCAASGSTFVRYAMGWYRQAPGKEWELVARISGRSGSTYYADSEKGRFTISRDNAKNTVYLQMNSLKPEDTAVYFCAARAWYRVYAYDVWGQGTQVTVSS”, the “polyreactivity (PSR sort gate)” value is recorded as “high polyreactivity”. As to “QVQLVESGGGLVQAGGSLRLSCAASGSTFVRYVMGWYRQAPGKERELVAAISRRGGSTYYADSVKGRFTIARDNAKNTVYLQMNSLKPDDTAVYYCAAVYRLRGAFSRGYWGQGTQVTVSS”, the “polyreactivity (PSR sort gate)” value is reported as “high polyreactivity”.

For “QVQLVESGGGLVQAGGSLRLSCAASGSTFVRYVMGWYRQAPGKERELVAAISRRGGSTYYADSVKGRFTISRDHAKNTVYLQMNSLKPEDTAVYYCARTVGYRTLLESDSWGQGTQVTVSS”, the “polyreactivity (PSR sort gate)” value is listed as “high polyreactivity”.
